The target of assay [1] is T1, Fusion protein of extracellular domain of human TIGIT and His-tag (human TIGIT ECD-his) (human).
T1 chain: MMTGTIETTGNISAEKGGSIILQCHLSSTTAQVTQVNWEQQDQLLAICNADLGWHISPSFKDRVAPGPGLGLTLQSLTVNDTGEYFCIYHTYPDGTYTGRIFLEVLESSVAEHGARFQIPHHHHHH
In words: BIAcore.

For assay [2], the target named is T2, Full-length human TIGIT on CHO-K1 cells (CHO-K1 human TIGIT) (human, UniProt Q495A1 22-244).
T2 construct: NCBI XP_024309156.1; the entry includes the signal peptide (limits not recoverable); The strain (high, medium, low) is named under assay; also called high expression strain 1D2; medium expression strain 2D10
T2 sequence: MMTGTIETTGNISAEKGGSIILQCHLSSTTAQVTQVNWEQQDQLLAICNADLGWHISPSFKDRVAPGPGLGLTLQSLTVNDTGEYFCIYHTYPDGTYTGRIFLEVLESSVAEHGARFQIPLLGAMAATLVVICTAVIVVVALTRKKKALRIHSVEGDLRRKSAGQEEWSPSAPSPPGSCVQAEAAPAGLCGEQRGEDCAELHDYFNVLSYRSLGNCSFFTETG
In words: cell binding, CHO-K1 human TIGIT high expression strain. In a few lines:
(§1)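 Binding was measured by flow cytometry after a 60-minute, 4° C incubation of the antibodies with 2×10⁵ CHO-K1 cells displaying full-length human or cynomolgus monkey TIGIT. Antibody titration: 12 points, threefold serial dilution from 80 nM, in 1% BSA-PBS.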

Assay [3] addresses T3, Full-length cynomolgus monkey TIGIT on CHO-K1 cells (CHO-K1 cynomolgus monkey TIGIT) (cynomolgus monkey).
T3 construct: NCBI XP_015300911.1
In words: cell binding, CHO-K1 cynomolgus monkey TIGIT. Summed up:
as §1

Assay [4] has as its target T1, Fusion protein of extracellular domain …. In words: BIAcore (second series). On the technique in general: In SPR one partner is held on a chip, and binding of the other changes the refractive index at the surface.
Assay [5] addresses T4, Fusion protein of extracellular domain of cynomolgus monkey TIGIT and mouse IgG2a Fc fragment (cynomolgus … (cynomolgus monkey)).
T4 construct: The entry includes the signal peptide (limits not recoverable) and the mouse IgG2a Fc
In words: ELISA, cynomolgus monkey TIGIT ECD-mFc. In a few lines:
(§2)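 Plates blocked with 5% skim milk-PBS at 37° C for 2-4 h. Test antibodies applied as a 12-point 3-fold series from 13 nM for 1.5-2 h at 37° C. Read-out: HRP secondary (1:5000, 1 h, 37° C), TMB colour for 7-10 min at room temperature, acid stop, absorbance at OD450 nm.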
Background: In an ELISA, binding on a coated surface is turned into a signal by an enzyme label.

The target of assay [6] is T5, Fusion protein of extracellular domain of human TIGIT and human IgG1 Fc fragment (human TIGIT ECD-hFc) (human).
T5 construct: The entry includes the signal peptide (limits not recoverable) and the human IgG1 Fc
In words: blocking of TIGIT ECD-hFc binding to CHO-K1 CD155 cells. Summed up: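 IC50 values come from inhibition curves in a cell-based ELISA using CHO-K1 CD155 cells. Antibodies premixed for 0.5 h with human TIGIT ECD-hFc (working concentration 30 ng/mL) were added to the fixed, blocked cells for 1.5-2 h at 37° C. Bound TIGIT was then detected with HRP secondary antibody and TMB at OD450 nm.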

In assay [7] the target is T1, Fusion protein of extracellular domain …. In words: BIAcore (second series); serves as reference of r34-r37.
Assay [8] deals with T6, Fusion protein of extracellular domain of human TIGIT and mouse IgG2a Fc fragment (human TIGIT ECD-mFc) (human).
T6 construct: The entry includes the signal peptide (limits not recoverable) and the mouse IgG2a Fc
T6 chain: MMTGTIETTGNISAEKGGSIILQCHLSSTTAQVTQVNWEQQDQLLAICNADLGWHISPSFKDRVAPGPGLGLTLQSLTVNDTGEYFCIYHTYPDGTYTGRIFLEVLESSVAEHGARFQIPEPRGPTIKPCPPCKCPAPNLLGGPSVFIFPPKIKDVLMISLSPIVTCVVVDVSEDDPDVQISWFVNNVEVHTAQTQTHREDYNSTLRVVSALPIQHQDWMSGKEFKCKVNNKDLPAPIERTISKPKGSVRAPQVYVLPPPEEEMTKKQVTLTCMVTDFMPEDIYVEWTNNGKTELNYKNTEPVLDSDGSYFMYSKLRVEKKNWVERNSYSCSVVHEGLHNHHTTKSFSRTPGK
In words: ELISA, human TIGIT ECD-mFc. In a few lines:
as §2

In assay [9] the target is T1, Fusion protein of extracellular domain …. In words: BIAcore; KD ratio to TIGIT-CHI-005.
Assay [10] has as its target T7, human PVRIG-mFc protein (Acro, PVG-H5253) (human, UniProt Q6DKI7 41-171, limits assumed).
T7 construct: bought reagent; also called PVRIG-ECD-mFc
T7 sequence (looked up): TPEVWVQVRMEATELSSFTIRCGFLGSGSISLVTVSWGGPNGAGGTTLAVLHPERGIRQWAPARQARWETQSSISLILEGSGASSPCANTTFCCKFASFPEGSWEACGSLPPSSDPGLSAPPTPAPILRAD
In words: competition FACS; blocked: PVRIG-mFc binding to CHO-K1 CD112 cells. Here is the method:
The Ham's F12 (Gibico, 21127-022) complete medium containing 10% FBS was then added to stop the digestion and acquire cell suspension. After counting with a cell counter (Beckman Coulter, Vi-CELL), an appropriate amount of cell suspension was centrifuged at 350×g to remove the supernatant, washed twice with PBS, stained with Zombie violet (Biolegend, 423114) and incubated at room temperature for 20 minutes. After incubation, the cells were added with staining buffer (2% FBS+PBS) to stop staining, centrifuged at 350×g to remove the supernatant, washed twice and resuspended with staining buffer to a density of 2×10⁶ cells/mL. The cells were plated into a 96-well plate (50 μL of cell suspension per well) for further use. A working solution of human PVRIG-mFc protein (Acro, PVG-H5253) prepared with staining buffer, 1 μg/mL (four-fold concentration), was added into a 96-well plate (50 μL PVRIG-mFc working solution per well). […] The diluted antibodies were added to the well containing 50 μL of PVRIG-mFc. The plate was placed on a microplate shaker at 400 rpm for 1 minute to fully mix the antibodies and PVRIG-mFc proteins, and then incubated at 4° C. for 30 minutes. After the incubation, the cell suspension prepared above (100 μL) was added into the wells, gently mixed with the pipette tip and incubated at 4° C. for 30 minutes. After the incubation, the cells were washed twice with staining buffer (200 μL per well) and centrifuged at 350×g for 5 minutes to discard the supernatant. The PE goat anti-mouse IgG Fc antibody (Biolegend, 405337) was diluted 250 times with staining buffer, added into the washed wells (100 μL per well), mixed well, and stained at 4° C. for 30 minutes. After staining, the cells were washed twice with staining buffer, finally resuspended with 200 μL staining buffer and analyzed by flow cytometry (BD, Canto II). The weaker the fluorescence signal, the stronger the ability of the antibodies blocks the binding of CHO-K1 human CD112 cells to the PVRIG-mFc protein.

The target in assay [11] is T8, cynomolgus monkey PVRIG on FlpinCHO-cyno PVRIG cells (cynomolgus monkey, UniProt A0A2K5WVV8 41-322).
T8 construct: whole, on cells; also called FlpinCHO-cynomolgus monkey PVRIG
T8 sequence: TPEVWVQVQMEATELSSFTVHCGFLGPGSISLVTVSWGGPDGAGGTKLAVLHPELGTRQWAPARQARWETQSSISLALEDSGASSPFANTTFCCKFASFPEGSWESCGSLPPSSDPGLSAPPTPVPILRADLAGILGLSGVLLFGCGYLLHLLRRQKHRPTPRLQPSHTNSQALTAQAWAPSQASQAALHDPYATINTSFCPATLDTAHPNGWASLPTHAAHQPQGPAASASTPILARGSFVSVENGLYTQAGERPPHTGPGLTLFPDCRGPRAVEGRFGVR
In words: FACS, FlpinCHO cynomolgus monkey PVRIG cells. Here is the method: (§3) CHO-K1 stable cells ([…]-61™) transfected with human or cynomolgus monkey PVRIG high expression plasmids were named FlpinCHO-hPVRIG and FlpinCHO-cynoPVRIG. […] After discarding the cell culture medium, the cells were rinsed with PBS and digested for 8-10 minutes by adding 1 mL Versene (Gibico, 15040-066). The Ham's F12 (Gibico, 21127-022) complete medium containing 10% FBS was then added to terminate the digestion and acquire cell suspension. After cell counting, an appropriate amount of cell suspension was centrifuged at 350×g to remove the supernatant, washed twice with PBS, stained with Zombie violet (Biolegend, 423114) and incubated at room temperature for 20 minutes. After incubation, the cells were added with staining buffer (2% FBS+PBS) to stop staining, centrifuged at 350×g to remove the supernatant, washed twice and resuspended with staining buffer to a density of 2×10⁶ cells/mL. The cells were plated into a 96-well plate (50 μL of cell suspension per well) for further use. The antibodies were diluted from the highest concentration of 46 nM (two-fold concentration) with staining buffer by 3.3-fold serial dilution. The diluted antibodies were added to the well containing 50 μL of cell suspension. […] After staining, the cells were washed twice with staining buffer, finally resuspended with 200 μL staining buffer and analyzed by flow cytometry (BD, Canto II).
A general note: A flow cytometer gives signals particle by particle.

Assay [12] has as its target T9, human PVRIG on FlpinCHO-PVRIG cells (human, UniProt Q6DKI7 41-326).
T9 construct: whole, on cells; also called FlpinCHO-hPVRIG; FlpinCHO-human PVRIG
T9 sequence (looked up): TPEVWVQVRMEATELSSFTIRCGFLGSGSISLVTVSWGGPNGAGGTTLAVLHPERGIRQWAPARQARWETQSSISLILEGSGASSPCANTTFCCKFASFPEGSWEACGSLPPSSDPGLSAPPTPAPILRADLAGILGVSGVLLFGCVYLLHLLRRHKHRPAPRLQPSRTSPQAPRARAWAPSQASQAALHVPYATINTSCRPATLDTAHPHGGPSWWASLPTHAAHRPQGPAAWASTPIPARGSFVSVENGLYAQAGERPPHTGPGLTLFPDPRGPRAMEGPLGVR
In words: FACS, FlpinCHO-hPVRIG cells. Here is the method: as §3

By Kd is commonly meant the free concentration of one partner at which half of the binding sites on the other are occupied at equilibrium, for simple one-to-one binding. A word on the koff: it is the rate constant with which the complex falls apart. For orientation: kon means a measure of how fast the partners come together. What is called EC50 is the concentration that produces a half-maximal response. As usually defined, the IC50 is the midpoint of a concentration-inhibition curve. Broadly, the EC50 (read off the curve) is the concentration at which the effect is half-maximal.

Values joined by “and” are separate entries in the source; they are usually repeats but may differ in a detail not shown here. Identical values can stand only once.

T3 sequence (chain, as listed by the source limits assumed): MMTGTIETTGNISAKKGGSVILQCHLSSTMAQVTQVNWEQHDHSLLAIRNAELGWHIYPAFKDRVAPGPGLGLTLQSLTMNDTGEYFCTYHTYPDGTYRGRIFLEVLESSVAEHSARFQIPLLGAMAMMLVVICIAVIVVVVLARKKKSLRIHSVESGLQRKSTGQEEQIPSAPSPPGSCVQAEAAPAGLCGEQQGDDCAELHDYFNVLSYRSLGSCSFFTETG

B1: TIGIT-005-H2L1 (antibody, V domains shown)
VH: EVQLVQSGAEVKKPGASVKVSCKASGYAFTNYLIEWVRQAPGQRLEWMGVINPGSGGTNYKEKFKGRVTITADKSSSTAYMELSSLRSEDTAVYYCARGEYFFFDYWGQGTTVTVSS
VL: DIVMTQSPDSLAVSLGERATINCKASQHVSNGVAWYQHKPGQSPKLLIYSASYRYTGVPDRFSGSGSGTDFTLTISSLQAEDVAVYYCQQHYNTPHTFGGGTKVEIK
notes: Humanized anti-TIGIT antibody
Consider B1, for which the Kd came out at 0.0378 nM in assay [1] and 0.0742 nM in assay [4]. Besides, the figures for the dissociation rate constant (koff) in assay [1] and in [4] were 0.000161 s⁻¹ and 0.000263 s⁻¹, respectively. Further, the on-rate constant (kon) was 4.26e+06 M⁻¹ s⁻¹ in [1] and 3.54e+06 M⁻¹ s⁻¹ in [4]. Besides, the EC50 in assay [2] was 0.0281 nM and 0.0272 nM; in assay [3], 0.0199 nM and 0.047 nM; in [5], 0.0145 nM and 0.0393 nM; in assay [8] it was 0.0141 nM and 0.0247 nM. Also, in [6], the IC50 is 0.321 nM and 0.389 nM. For the same molecule, the “Fold change vs chimeric antibodies (KD)” value in [7] was found to be 1 fold; in assay [9], 1.37 fold.

B2: PVRIG-A105-H1 (VHH)
VHH: EVQLVESGGGLVQPGGSLRLSCAASGRTFDRHTMSWFRQAPGKEREFVATASRIPGDTYYVDSVKGRFTISRDNAKNSLYLQMNSLRAEDTAVYYCAATSAYCSEVDCYEKGSWYDNWGQGTMVTVSS
notes: humanized VHH; also called A105.VH1
B2: in [10], the “IC50 (read off the curve)” value was around 1 nM. Besides, the concentration giving a half-maximal response (EC50 (read off the curve)) in assay [11] is around 0.4 nM; in assay [12], around 0.5 nM.

Source of the values: US20240343803A1 (SHANDONG SIMCERE BIOPHARMACEUTICAL, published 2024).
